The subject of series [1] is T1, APG07433.1 (Bacillus sp.).
T1 sequence: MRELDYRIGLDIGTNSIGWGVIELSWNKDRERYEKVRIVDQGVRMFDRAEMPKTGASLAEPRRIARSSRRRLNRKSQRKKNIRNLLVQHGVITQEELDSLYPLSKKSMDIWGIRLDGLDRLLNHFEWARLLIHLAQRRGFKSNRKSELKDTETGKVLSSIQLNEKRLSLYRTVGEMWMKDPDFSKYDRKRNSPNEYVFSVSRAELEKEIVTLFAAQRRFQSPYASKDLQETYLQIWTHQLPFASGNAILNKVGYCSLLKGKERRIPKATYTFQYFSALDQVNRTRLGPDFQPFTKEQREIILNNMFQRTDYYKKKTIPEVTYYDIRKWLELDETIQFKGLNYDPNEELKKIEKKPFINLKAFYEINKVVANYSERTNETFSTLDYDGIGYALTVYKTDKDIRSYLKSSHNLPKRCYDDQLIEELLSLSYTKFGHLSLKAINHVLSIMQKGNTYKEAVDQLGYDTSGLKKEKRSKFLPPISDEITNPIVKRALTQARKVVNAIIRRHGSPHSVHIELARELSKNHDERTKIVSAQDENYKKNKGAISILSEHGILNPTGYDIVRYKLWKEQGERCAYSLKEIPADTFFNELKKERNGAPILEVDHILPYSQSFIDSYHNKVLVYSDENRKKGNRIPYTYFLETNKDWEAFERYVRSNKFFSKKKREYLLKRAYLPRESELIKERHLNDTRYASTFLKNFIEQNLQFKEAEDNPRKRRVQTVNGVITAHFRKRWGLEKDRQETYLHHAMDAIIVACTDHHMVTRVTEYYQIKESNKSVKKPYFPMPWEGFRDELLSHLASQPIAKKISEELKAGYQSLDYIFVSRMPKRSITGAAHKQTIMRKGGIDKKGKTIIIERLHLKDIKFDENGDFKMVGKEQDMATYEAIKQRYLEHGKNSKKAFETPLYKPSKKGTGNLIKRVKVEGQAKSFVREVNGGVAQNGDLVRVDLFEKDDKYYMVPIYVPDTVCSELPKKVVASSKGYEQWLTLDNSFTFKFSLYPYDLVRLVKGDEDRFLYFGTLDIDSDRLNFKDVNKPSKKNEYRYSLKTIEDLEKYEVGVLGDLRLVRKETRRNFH
The series is described as follows: cleavage_in_vitro. The note with it: PAM NNNNCC; NTS cut 4, TS cut 3, 1 nt 5' overhang (Table 3).

In the next series the target is T2, APG07513.1 (Bacillus sp.).
T2 chain: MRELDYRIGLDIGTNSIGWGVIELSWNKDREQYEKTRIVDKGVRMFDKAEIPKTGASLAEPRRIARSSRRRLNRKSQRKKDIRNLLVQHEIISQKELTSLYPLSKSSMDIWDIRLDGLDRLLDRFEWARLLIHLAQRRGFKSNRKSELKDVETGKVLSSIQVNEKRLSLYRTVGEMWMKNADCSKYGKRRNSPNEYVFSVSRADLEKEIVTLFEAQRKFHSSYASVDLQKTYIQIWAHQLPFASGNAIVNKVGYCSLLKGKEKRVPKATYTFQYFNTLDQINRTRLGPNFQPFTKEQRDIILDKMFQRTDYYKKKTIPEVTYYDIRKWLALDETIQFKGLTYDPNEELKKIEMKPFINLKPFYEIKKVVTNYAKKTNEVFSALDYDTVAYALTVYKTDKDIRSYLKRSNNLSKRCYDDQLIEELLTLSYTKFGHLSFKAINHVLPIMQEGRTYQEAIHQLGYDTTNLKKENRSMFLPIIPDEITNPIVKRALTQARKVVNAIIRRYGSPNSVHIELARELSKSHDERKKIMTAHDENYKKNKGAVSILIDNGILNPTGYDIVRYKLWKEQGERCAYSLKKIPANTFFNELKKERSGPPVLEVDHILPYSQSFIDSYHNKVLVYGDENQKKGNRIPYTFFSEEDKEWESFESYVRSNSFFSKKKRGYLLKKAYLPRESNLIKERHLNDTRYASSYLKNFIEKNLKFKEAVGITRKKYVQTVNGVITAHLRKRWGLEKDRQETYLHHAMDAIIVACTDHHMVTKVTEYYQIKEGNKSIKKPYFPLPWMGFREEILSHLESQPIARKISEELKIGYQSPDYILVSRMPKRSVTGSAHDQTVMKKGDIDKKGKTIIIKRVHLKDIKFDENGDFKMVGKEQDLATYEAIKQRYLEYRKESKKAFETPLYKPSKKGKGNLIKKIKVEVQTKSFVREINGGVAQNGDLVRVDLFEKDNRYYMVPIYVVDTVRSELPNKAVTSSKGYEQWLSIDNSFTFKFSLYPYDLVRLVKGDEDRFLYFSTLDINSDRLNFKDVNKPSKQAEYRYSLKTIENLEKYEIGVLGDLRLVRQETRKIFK
The series is described as follows: cell_activity; HEK293T; PAM NNNNCC. To be noted: tags: E. coli pRSF-1b expression; human cells: N-term SV40 NLS and 3xFLAG, C-term nucleoplasmin NLS. The method, then: (§1) The constructs described above were introduced into mammalian cells. One day prior to transfection, 1×10⁵ HEK293T cells/well (Sigma) were plated in 24-well dishes in Dulbecco's modified Eagle medium (DMEM) plus 10% (vol/vol) fetal bovine serum (Gibco) and 1% Penicillin-Streptomycin (Gibco). The next day when the cells were at 50-60% confluency, 500 ng of a RGN expression plasmid plus 500 ng of a single gRNA expression plasmid were co-transfected using […] of Lipofectamine 3000 (Thermo Scientific) per well, following the manufacturer's instructions. After 48 hours of growth, total genomic DNA was harvested using a genomic DNA isolation kit (Machery-Nagel) according to the manufacturer's instructions.
(§2) Additionally, products from PCR #2 containing Illumina overhang sequences underwent library preparation following the Illumina 16S Metagenomic Sequencing Library protocol. Deep sequencing was performed on an Illumina Mi-Seq platform by a service provider (MOGene). Typically 200,000 of 250 bp paired-end reads (2×100,000 reads) are generated per amplicon. The reads were analyzed using CRISPResso (Pinello, et al. 2016 Nature Biotech, 34:695-697) to calculate the rates of editing. Output alignments were hand-curated to confirm insertion and deletion sites as well as identify microhomology sites at the recombination sites. All experiments were performed in human cells. The “target sequence” is the targeted sequence within the gene target. For each target sequence, the guide RNA comprised the complementary RNA target sequence and the appropriate sgRNA depending on the RGN used.

The next series addresses T3, APG07433.1 (Bacillus sp.).
T3 chain: T1 sequence
Put plainly: cell_activity; HEK293T; PAM NNNNCC. The note with it: tags: human cells: N-term SV40 NLS and 3xFLAG, C-term nucleoplasmin NLS. How it is done: as §1, §2

In the case of “GAGCGGACAGCAGCUUCCUAUAUCUCGUACNNNNNNNNNNNNNNNNNNNNNNNNNGUCAUAGUUCCAUUAAAGCCAAAAGUGGCUUUGAUGUUUCUAUGAUAAGGGUUUCGACCCGUGGCGUCGGGGAUCGCCUGCCCAUUGAAAUGGGCUUCUCCCCAUUUAUU / GAGCGGACAGCAGCTTCCTATATCTCGTAC / GTACGAGATATAGGAAGCTGCTGTCCGCTC [Sequence 1 sgRNA for APG07433.1 ; Sequence 1 target]”, the activity in series [1] was 86 % cleaved.

B1: Guide 136 ; AurkB target of guide 136 (ssRNA ; dsDNA)
RNA: GGGCCAUUAAAACCUCUCCAGUCAUAGUUCCAUUAAAGCCAUUGCUGAAAGACAGCAAUGGCUUUGAUGUUUCUAUGAUAAGGGCUUCGGCCCGUGGCGUUGGGGAUCGCCUGCCCAUUUUAAUGGGCUUCUCCCCAUCUAUUU
DNA 1: GGGCCATTAAAACCTCTCCA
DNA 2: TGGAGAGGTTTTAATGGCCC
Regarding B1, in the series with APG07513.1, the activity was 0.9 % editing.

B2: Guide 144 ; AurkB target of guide 144 (ssRNA ; dsDNA)
RNA: CAUGGCAGUACAUUAGAGCAGUCAUAGUUCCAUUAAAGCCAUUGCUGAAAGACAGCAAUGGCUUUGAUGUUUCUAUGAUAAGGGCUUCGGCCCGUGGCGUUGGGGAUCGCCUGCCCAUUUUAAUGGGCUUCUCCCCAUCUAUUU
DNA 1: CATGGCAGTACATTAGAGCA
DNA 2: TGCTCTAATGTACTGCCATG
For the molecule B2, the activity in the series with APG07513.1 came out at 2.4 % editing.

B3: Guide 173 ; HPRT1 target of guide 173 (ssRNA ; dsDNA)
RNA: CUUCUAUAGCCUCCUUCCCCGUCAUAGUUCCAUUAAAGCCAAAAGUGGCUUUGAUGUUUCUAUGAUAAGGGUUUCGACCCGUGGCGUCGGGGAUCGCCUGCCCAUUGAAAUGGGCUUCUCCCCAUUUAUU
DNA 1: CTTCTATAGCCTCCTTCCCC
DNA 2: GGGGAAGGAGGCTATAGAAG
Take B3: the activity with APG07433.1 was 26.6 % editing.

The values are drawn from patent US20250283117, “RNA-GUIDED NUCLEASES AND ACTIVE FRAGMENTS AND VARIANTS THEREOF AND METHODS OF USE” (Life Edit Therapeutics, Inc., published 2025).
